According to paper PMC8153946, “Substrate Selectivity of Coumarin Derivatives by Human CYP1 Enzymes: In Vitro Enzyme Kinetics and In Silico Modeling” (ACS Omega, 2021):
Marks after values point to notes of the source that are not given here.

Key:
Assay type in all cases: biochemical, human
[1] = substrate: COc1ccc(-c2cc3cc(OC(C)=O)ccc3oc2=O)cc1; assay: Michaelis–Menten kinetics of oxidation to fluorescent 7-hydroxy metabolite by recombinant CYP1A1; conditions: other: recombinant CYP1A1, 100 mM Tris-HCl pH 7.4, 37 °C, 95% confidence interval in brackets
Method: (§1) Baculovirus-insect cell-expressed human CYP1A1, CYP1A2, CYP1B1, CYP2A6, CYP2B6, CYP2C8, CYP2C9, CYP2C19, CYP2D6, CYP2E1, CYP3A4, CYP3A5, and CYP3A7 were purchased from BD Biosciences Discovery Labware (Woburn, MA, USA) and used according to the manufacturer’s instructions.
(§2) The kinetic assays were carried out in 100 μL volume containing 100 mM Tris-HCl buffer pH 7.4, 0–40 μM coumarin derivative or 0–10 μM 7-ethoxyresorufin, 1–25 nM recombinant CYP or 0–0.1 g/L microsomal protein, and 20% NADPH regenerating system. Incubations took place at 37 °C in 96-multiwell plates; the fluorescence was measured with a Victor[2] plate reader (PerkinElmer Life Sciences, Turku, Finland). The detailed conditions are described in the figures and tables. The reaction was started by adding NADPH, and fluorescence was measured at 2 min intervals for 40 min using excitation at 405 nm and emission at 460 nm for oxidation of coumarin derivatives[18] and excitation at 570 nm and emission at 615 nm for ethoxyresorufin or pentoxyresorufin 7-O-dealkylations. Incubations without the substrate, enzyme, or NADPH were used as blank reactions. Resorufin was used as a standard, and 3-(4-fluorophenyl)-7-hydroxycoumarin was used as the surrogate standards to calculate the amount of product formed. The linear phase of the reactions was used for calculations.
(§3) Enzyme kinetic parameters were analyzed using the nonlinear Michaelis–Menten equation v = Vmax × S/(Km + S), in which v is the rate for 7-hydroxylation of a coumarin derivative, S is its concentration, and Vmax value is the limiting rate of the reaction of 7-hydroxylation, which reached a half-maximal rate at a concentration of Km for the substrate.

[2] = substrate: O=c1oc2ccc(O)cc2cc1-c1cccc(O)c1; assay: as above; conditions: other: recombinant CYP1A1, 100 mM Tris-HCl pH 7.4, 37 °C, 95% confidence interval in brackets
Method: as §1, §2, §3

[3] = substrate: COc1ccc2oc(=O)c(-c3ccc(OC(F)(F)F)cc3)cc2c1; assay: as above; conditions: other: recombinant CYP1A1, 100 mM Tris-HCl pH 7.4, 37 °C, 95% confidence interval in brackets
Method: as §1, §2, §3

[4] = substrate: COc1ccc2oc(=O)c(-c3ccc(O)c(F)c3)cc2c1; assay: as above; conditions: other: recombinant CYP1A1, 100 mM Tris-HCl pH 7.4, 37 °C, 95% confidence interval in brackets
Method: as §1, §2, §3

[5] = substrate: COc1cccc(-c2cc3cc(OC)ccc3oc2=O)c1; assay: as above; conditions: other: recombinant CYP1A1, 100 mM Tris-HCl pH 7.4, 37 °C, 95% confidence interval in brackets
Method: as §1, §2, §3

[6] = substrate: CCOc1ccc2ccc(=O)oc2c1; assay: as above; conditions: other: recombinant CYP1A1, 100 mM Tris-HCl pH 7.4, 37 °C, 95% confidence interval in brackets
Method: as §1, §2, §3

[7] = substrate: CC(=O)Oc1ccc(-c2cc3cc(Cl)ccc3oc2=O)cc1; assay: as above; conditions: other: recombinant CYP1A1, 100 mM Tris-HCl pH 7.4, 37 °C, 95% confidence interval in brackets
Method: as §1, §2, §3

[8] = substrate: CCOc1ccc2nc3ccc(=O)cc-3oc2c1; assay: as above; conditions: other: recombinant CYP1A1, 100 mM Tris-HCl pH 7.4, 37 °C, 95% confidence interval in brackets
Method: as §1, §2, §3

[9] = substrate: CCCCCOc1ccc2nc3ccc(=O)cc-3oc2c1; assay: as above; conditions: other: recombinant CYP1A1, 100 mM Tris-HCl pH 7.4, 37 °C, 95% confidence interval in brackets
Method: as §1, §2, §3

[10] = substrate: COc1ccc2cc(-c3ccc(OC(F)(F)F)cc3)c(=O)oc2c1; assay: as above; conditions: other: recombinant CYP1A1, 100 mM Tris-HCl pH 7.4, 37 °C, 95% confidence interval in brackets
Method: as §1, §2, §3

[11] = substrate: O=c1oc2ccccc2cc1-c1cccc(O)c1; assay: Michaelis–Menten kinetics of oxidation to fluorescent 7-hydroxy metabolite by recombinant CYP1A2; conditions: other: recombinant CYP1A2, 100 mM Tris-HCl pH 7.4, 37 °C, 95% confidence interval in brackets
Method: as §1, §2, §3

[12] = substrate: COc1ccc(-c2cc3cc(OC(C)=O)ccc3oc2=O)cc1; assay: as above; conditions: other: recombinant CYP1A2, 100 mM Tris-HCl pH 7.4, 37 °C, 95% confidence interval in brackets
Method: as §1, §2, §3

[13] = substrate: O=c1oc2ccc(O)cc2cc1-c1cccc(O)c1; assay: as above; conditions: other: recombinant CYP1A2, 100 mM Tris-HCl pH 7.4, 37 °C, 95% confidence interval in brackets
Method: as §1, §2, §3

[14] = substrate: COc1ccc2oc(=O)c(-c3ccc(OC(F)(F)F)cc3)cc2c1; assay: as above; conditions: other: recombinant CYP1A2, 100 mM Tris-HCl pH 7.4, 37 °C, 95% confidence interval in brackets
Method: as §1, §2, §3

[15] = substrate: COc1ccc2oc(=O)c(-c3ccc(O)c(F)c3)cc2c1; assay: as above; conditions: other: recombinant CYP1A2, 100 mM Tris-HCl pH 7.4, 37 °C, 95% confidence interval in brackets
Method: as §1, §2, §3

[16] = substrate: COc1cccc(-c2cc3cc(OC)ccc3oc2=O)c1; assay: as above; conditions: other: recombinant CYP1A2, 100 mM Tris-HCl pH 7.4, 37 °C, 95% confidence interval in brackets
Method: as §1, §2, §3

[17] = substrate: Cc1ccc2oc(=O)c(-c3ccc(F)cc3)cc2c1; assay: as above; conditions: other: recombinant CYP1A2, 100 mM Tris-HCl pH 7.4, 37 °C, 95% confidence interval in brackets
Method: as §1, §2, §3

[18] = substrate: CC(=O)Oc1ccc(-c2cc3cc(Cl)ccc3oc2=O)cc1; assay: as above; conditions: other: recombinant CYP1A2, 100 mM Tris-HCl pH 7.4, 37 °C, 95% confidence interval in brackets
Method: as §1, §2, §3

[19] = substrate: CCOc1ccc2nc3ccc(=O)cc-3oc2c1; assay: as above; conditions: other: recombinant CYP1A2, 100 mM Tris-HCl pH 7.4, 37 °C, 95% confidence interval in brackets
Method: as §1, §2, §3

[20] = substrate: COc1ccc2cc(-c3ccc(OC(F)(F)F)cc3)c(=O)oc2c1; assay: as above; conditions: other: recombinant CYP1A2, 100 mM Tris-HCl pH 7.4, 37 °C, 95% confidence interval in brackets
Method: as §1, §2, §3

B1: human CYP1A1 (Homo sapiens) (protein)
chain: MLFPISMSATEFLLASVIFCLVFWVIRASRPQVPKGLKNPPGPWGWPLIGHMLTLGKNPHLALSRMSQQYGDVLQIRIGSTPVVVLSGLDTIRQALVRQGDDFKGRPDLYTFTLISNGQSMSFSPDSGPVWAARRRLAQNGLKSFSIASDPASSTSCYLEEHVSKEAEVLISTLQELMAGPGHFNPYRYVVVSVTNVICAICFGRRYDHNHQELLSLVNLNNNFGEVVGSGNPADFIPILRYLPNPSLNAFKDLNEKFYSFMQKMVKEHYKTFEKGHIRDITDSLIEHCQEKQLDENANVQLSDEKIINIVLDLFGAGFDTVTTAISWSLMYLVMNPRVQRKIQEELDTVIGRSRRPRLSDRSHLPYMEAFILETFRHSSFVPFTIPHSTTRDTSLKGFYIPKGRCVFVNQWQINHDQKLWVNPSEFLPERFLTPDGAIDKVLSEKVIIFGMGKRKCIGETIARWEVFLFLAILLQRVEFSVPLGVKVDMTPIYGLTMKHACCEHFQMQLRS
notes: purchased BD Biosciences Discovery Labware (Woburn, MA, USA); host or cells: baculovirus-insect cells
Km [1]: 1.04 (0.65–1.42) μM
kcat [1]: 7.5 (7–8.1) mol/(min·mol CYP)
Km [2]: 2.11 (0.17–4.1) μM
kcat [2]: 4.0 (3.0–5.0) mol/(min·mol CYP)
Km [3]: 4.8 (2.6–6.9) μM
kcat [3]: 12.6 (10.6–14.6) mol/(min·mol CYP)
Km [4]: 10.7 (2.6–18.7) ^b μM
kcat [4]: 32 (18–46) mol/(min·mol CYP)
Km [5]: 0.96 (0.4–1.52) μM
kcat [5]: 24.2 (19.4–29) mol/(min·mol CYP)
Km [6]: 11.9 (0–25.1) μM
kcat [6]: 26.2 (14.5–38) mol/(min·mol CYP)
Km [7]: 0.41 (0.26–0.55) μM
kcat [7]: 6.5 (5.9–7.1) mol/(min·mol CYP)
Km [8]: 0.054 (0.035–0.075) μM
kcat [8]: 10.3 (9.3–11.4) mol/(min·mol CYP)
Km [9]: 0.74 (0.54–0.94) μM
kcat [9]: 1.35 (1.19–1.50) mol/(min·mol CYP)
Km [10]: 9.7 (4.8–14.6) μM
kcat [10]: 4.2 (3.3–5.1) mol/(min·mol CYP)

B2: human CYP1A2 (Homo sapiens) (protein)
chain: MALSQSVPFSATELLLASAIFCLVFWVLKGLRPRVPKGLKSPPEPWGWPLLGHVLTLGKNPHLALSRMSQRYGDVLQIRIGSTPVLVLSRLDTIRQALVRQGDDFKGRPDLYTSTLITDGQSLTFSTDSGPVWAARRRLAQNALNTFSIASDPASSSSCYLEEHVSKEAKALISRLQELMAGPGHFDPYNQVVVSVANVIGAMCFGQHFPESSDEMLSLVKNTHEFVETASSGNPLDFFPILRYLPNPALQRFKAFNQRFLWFLQKTVQEHYQDFDKNSVRDITGALFKHSKKGPRASGNLIPQEKIVNLVNDIFGAGFDTVTTAISWSLMYLVTKPEIQRKIQKELDTVIGRERRPRLSDRPQLPYLEAFILETFRHSSFLPFTIPHSTTRDTTLNGFYIPKKCCVFVNQWQVNHDPELWEDPSEFRPERFLTADGTAINKPLSEKMMLFGMGKRRCIGEVLAKWEIFLFLAILLQQLEFSVPPGVKVDLTPIYGLTMKHARCEHVQARLRFSIN
notes: as for B1
Km [11]: 47 (8–86) μM
kcat [11]: 0.4 (0.19–0.6) mol/(min·mol CYP)
Km [12]: 2.2 (1.6–2.8) μM
kcat [12]: 8.7 (8–9.4) mol/(min·mol CYP)
Km [13]: 2.4 (1.8–3.1) μM
kcat [13]: 29.8 (27.5–32.2) mol/(min·mol CYP)
Km [14]: 0.96 (0.61–1.32) μM
kcat [14]: 4.4 (4.1–4.8) mol/(min·mol CYP)
Km [15]: 20.3 (0–53) μM
kcat [15]: 6.0 (0–12.8) mol/(min·mol CYP)
Km [16]: 0.27 (0.19–0.36) μM
kcat [16]: 8.2 (7.6–8.9) mol/(min·mol CYP)
Km [17]: 7.6 (0.59–14.6) μM
kcat [17]: 1 (0.63–1.38) mol/(min·mol CYP)
Km [18]: 2 (1.2–2.7) μM
kcat [18]: 1.2 (1.1–1.4) mol/(min·mol CYP)
Km [19]: 0.56 (0.44–0.68) μM
kcat [19]: 3.2 (2.9–3.6) mol/(min·mol CYP)
Km [20]: 7.9 (5.1–10.6) μM
kcat [20]: 9.1 (7.8–10.5) mol/(min·mol CYP)
